Residue numbers refer to the chain shown, from its start. Names may count otherwise.

Test [1] concerns the target T1, recombinant human TNFα (human, UniProt P01375 77-233, 125I-labeled in the receptor-blocking assay ; 125I-labelled (positions not stated) only in the receptor-blocking assay; soluble homotrimer of this 17 kD subunit). Briefly: cell-based or functional assay.
Test [2] concerns the target T1, recombinant human TNFα. The test can be described thus: inhibition of 125I-TNFα binding to plate-coated p55-sf2 by hybridoma supernatant. The method, then: (§1) Although eight TNV mAb samples were tested in these experiments, for simplicity three of the mAbs that were shown by DNA sequence analyses to be identical to one of the other TNV mAbs (see Section 5.2.2) are not shown here. Each sample was tested in duplicate. The results shown are representative of two independent experiments.
(§2) 50:1 of p55-sf2 at 0.5 :g/ml in PBS was added to Optiplates to coat the wells during a one-hour incubation at 37° C. Serial dilutions of the eight TNV cell supernatants were prepared in 96-well round-bottom plates using PBS/0.1% BSA as diluent. […] The mixture was preincubated for one hour at RT. […] After 2 hrs at RT, Optiplates were washed three times with PBS-Tween. […] of Microscint-20 was added and the cpm bound determined using the TopCount gamma counter.

Test [3] concerns the target T1, recombinant human TNFα. Briefly: competition radioligand assay: mAb in hybridoma supernatant preincubated with 5 ng/ml 125I-TNFα, then 125I-TNFα bound to plate-coated p55-sf2 (TNF receptor/IgG fusion) counted as cpm. The method, then:
as §1, §2

Test [4] concerns the target T2, human lymphotoxin (human, UniProt P01374 35-205, limits assumed).
T2 sequence (looked up): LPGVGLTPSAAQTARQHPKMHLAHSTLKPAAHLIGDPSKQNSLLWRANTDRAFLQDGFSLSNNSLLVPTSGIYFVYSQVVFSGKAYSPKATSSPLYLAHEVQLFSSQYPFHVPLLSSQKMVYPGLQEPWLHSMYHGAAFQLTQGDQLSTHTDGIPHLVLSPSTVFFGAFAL
Briefly: not described.

B1: GenTNV148.26.12 (antibody, human IgG1, kappa, V domains shown)
VH: QVQLVESGGGVVQPGRSLRLSCAASGFIFSSYAMHWVRQAPGNGLEWVAFMSYDGSNKKYADSVKGRFTISRDNPKNTLYLQMNSLRAEDTAVYYCARDRGIAAGGNYYYYGMDVWGQGTTVTVSS
VL: EIVLTQSPATLSLSPGERATLSCRASQSVYSYLAWYQQKPGQAPRLLIYDASNRATGIPARFSGSGSGTDFTLTISSLEPEDFAVYYCQQRSNWPPFTFGPGTKVDIKR
notes: also called C420A
Regarding B1, in test [1], the “neutralizing TNFα bioactivity (potency relative to TNV14)” value was determined as 4 fold. In addition, in test [2], the “fold better at blocking TNF binding than TNV118 and TNV14” value is about 4 fold. In test [3], the “IC50 (read off the curve)” value was about 3 ng/mL.

B2: GenTNV86.14.34 (antibody, human IgG1, kappa, V domains shown)
VH: B1 VH
VL: B1 VL
notes: also called C417A
For B2, the “fold better at blocking TNF binding than TNV118 and TNV14” value in test [2] was about 4 fold.

B3: golimumab (antibody, human IgG1, kappa, V domains shown)
VH: B1 VH with P75S
VL: B1 VL
modifications: partial cyclic succinimide at LC Asn93 (LC cycAsn93); N-glycosylated on asparagine 306; partial deamidation of HC Asn43
notes: Fully human IgG1 kappa, produced in Sp2/0 cells; also called SIMPONI
For B3, the binding result in test [4] is “no binding”.

The record behind these values is patent US20220144934A1 (Janssen / Centocor, published 2022).
